Reference: patent US20230212319A1, “NOVEL ANTIGEN BINDING DOMAINS AND SYNTHETIC ANTIGEN RECEPTORS INCORPORATING THE SAME” (University of Southern California, priority 2020, published 2023)

B1: 21987 (protein)
chain: MALPVTALLLPLALLLHAARPQLQLQESGPGLVKPSETLSLTCTVSGDSISSGDYYWGWIRQPPGKGLEWIGHIYYSGVTYYNPSLKSRVTISVDTSRNQFSLKLSSVTAADTAVYYCTREDSSNWRSRGQGTLVTVSSLEDLKNVFPPEVAVFEPSEAEISHTQKATLVCLATGFYPDHVELSWWVNGKEVHSGVCTDPQPLKEQPALNDSRYCLSSRLRVSATFWQNPRNHFRCQVQFYGLSENDEWTQDRAKPVTQIVSAEAWGRADCGFTSESYQQGVLSATILYEILLGKATLYAVLVSALVLMAMVKRKDSRGRAKRSGSGATNFSLLKQAGDVEENPGPTSMDWIWRILFLVGAATGAHSFEQVQLVESGGGLVQPGGSLRLSCAASGFTFTNHAMSWVRQAPGKGLELVSSISGNGRTTYYADSVKGRFTISRDISKNTLDLQMNSLRAEDTAVYYCAKDGGETLVDSRGQGTLVTVSSTRIQNPDPAVYQLRDSKSSDKSVCLFTDFDSQTNVSQSKDSDVYITDKCVLDMRSMDFKSNSAVAWSNKSDFACANAFNNSIIPEDTFFPSPESSCDVKLVEKSFETDTNLNFQNLSVIGFRILLLKVAGFNLLMTLRLWSSRAKRSGSGVKQTLNFDLLKLAGDVESNPGPSRGHMTEYKPTVRLATRDDVPRAVRTLAAAFADYPATRHTVDPDRHIERVTELQELFLTRVGLDIGKVWVADDGAAVAVWTTPESVEAGAVFAEIGPRMAELSGSRLAAQQQMEGLLAPHRPKEPAWFLATVGVSPDHQGKGLGSAVVLPGVEAAERAGVPAFLETSAPRNLPFYERLGFTVTADVEVPEGPRTWCMTRKPGA
B2: 22019 (protein)
chain: MALPVTALLLPLALLLHAARPLEGKPIPNPLLGLDSTGSGEDLKNVFPPEVAVFEPSKAEIAHTQKATLVCLATGFYPDHVELSWWVNGKEVHSGVCTDPQPLKEQPALNDSRYCLSSRLRVSATFWQNPRNHFRCQVQFYGLSENDEWTQDRAKPVTQIVSAEAWGRADCGITSASYHQGVLSATILYEILLGKATLYAVLVSALVLMAMVKRKDSRGRAKRSGSGATNFSLLKQAGDVEENPGPTSTMALPVTALLLPLALLLHAARPQLQLQESGPGLVKPSETLSLTCTVSGDSISSGDYYWGWIRQPPGKGLEWIGHIYYSGVTYYNPSLKSRVTISVDTSRNQFSLKLSSVTAADTAVYYCTREDSSNWRSRGQGTLVTVSSLESGGGGSFEVQLLESGGGLIQPGGSLRLSCAASGFTFSSHAMTWVRQAPGKGLEWVSAISGSGDYTHYADSVKGRFTISRDNSKNTVYLQMNSLRAEDSAVYYCAKDEDGGSLLGHRGQGTLVTVSSTREQKLISEEDGSGIQNPDPAVYQLRDSKSSDKSVCLFTDFDSQTNVSQSKDSDVYITDKCVLDMRSMDFKSNSAVAWSNKSDFACANAFNNSIIPEDTFFPSSDVPCDVKLVEKSFETDTNLNFQNLSVIGFRILLLKVAGFNLLMTLRLWSSRAKRSGSGVKQTLNFDLLKLAGDVESNPGPSRGHMTEYKPTVRLATRDDVPRAVRTLAAAFADYPATRHTVDPDRHIERVTELQELFLTRVGLDIGKVWVADDGAAVAVWTTPESVEAGAVFAEIGPRMAELSGSRLAAQQQMEGLLAPHRPKEPAWFLATVGVSPDHQGKGLGSAVVLPGVEAAERAGVPAFLETSAPRNLPFYERLGFTVTADVEVPEGPRTWCMTRKPGA
B3: 22049 (protein)
chain: MALPVTALLLPLALLLHAARPQLQLQESGPGLVKPSETLSLTCTVSGDSISSGDYYWGWIRQPPGKGLEWIGHIYYSGVTYYNPSLKSRVTISVDTSRNQFSLKLSSVTAADTAVYYCTREDSSNWRSRGQGTLVTVSSLEGQPKANPTVTLFPPSSEELQANKATLVCLISDFYPGAVTVAWKADGSPVKAGVETTKPSKQSNNKYAASSYLSLTPEQWKSHRSYSCQVTHEGSTVEKTVAPTECSPIKTDVITMDPKDNCSKDANDTLLLQLTNTSAYYMYLLLLLKSVVYFAIITCCLLRRTAFCCNGEKSRAKRSGSGATNFSLLKQAGDVEENPGPTSMDWIWRILFLVGAATGAHSFEVQLLESGGGLIQPGGSLRLSCAASGFTFSSHAMTWVRQAPGKGLEWVSAISGSGDYTHYADSVKGRFTISRDNSKNTVYLQMNSLRAEDSAVYYCAKDEDGGSLLGHRGQGTLVTVSSTRASTKGPSVFPLAPSSKSTSGGTAALGCLVKDYFPEPVTVSWNSGALTSGVHTFPAVLQSSGLYSLSSVVTVPSSSLGTQTYICNVNHKPSNTKVDKRVEPKSCEVKTDSTDHVKPKETENTKQPSKSCHKPKAIVHTEKVNMMSLTVLGLRMLFAKTVAVNFLLTAKLFFLRAKRSGSGVKQTLNFDLLKLAGDVESNPGPSRGHMTEYKPTVRLATRDDVPRAVRTLAAAFADYPATRHTVDPDRHIERVTELQELFLTRVGLDIGKVWVADDGAAVAVWTTPESVEAGAVFAEIGPRMAELSGSRLAAQQQMEGLLAPHRPKEPAWFLATVGVSPDHQGKGLGSAVVLPGVEAAERAGVPAFLETSAPRNLPFYERLGFTVTADVEVPEGPRTWCMTRKPGA
B4: 22047 (protein)
chain: MALPVTALLLPLALLLHAARPQLQLQESGPGLVKPSETLSLTCTVSGDSISSGDYYWGWIRQPPGKGLEWIGHIYYSGVTYYNPSLKSRVTISVDTSRNQFSLKLSSVTAADTAVYYCTREDSSNWRSRGQGTLVTVSSLEDKTHTCPPCPAPIKTDVITMDPKDNCSKDANDTLLLQLTNTSAYYMYLLLLLKSVVYFAIITCCLLRRTAFCCNGEKSRAKRSGSGATNFSLLKQAGDVEENPGPTSMDWIWRILFLVGAATGAHSFEVQLLESGGGLIQPGGSLRLSCAASGFTFSSHAMTWVRQAPGKGLEWVSAISGSGDYTHYADSVKGRFTISRDNSKNTVYLQMNSLRAEDSAVYYCAKDEDGGSLLGHRGQGTLVTVSSTRIQNPDPAVYQLRDSKSSDKSVCLFTDFDSQTNVSQSKDSDVYITDKCVLDMRSMDFKSNSAVAWSNKSDFACANAFNNSIIPEDTFFPSPESSCDVKLVEKSFETDTNLNFQNLSVIGFRILLLKVAGFNLLMTLRLWSSRAKRSGSGVKQTLNFDLLKLAGDVESNPGPSRGHMTEYKPTVRLATRDDVPRAVRTLAAAFADYPATRHTVDPDRHIERVTELQELFLTRVGLDIGKVWVADDGAAVAVWTTPESVEAGAVFAEIGPRMAELSGSRLAAQQQMEGLLAPHRPKEPAWFLATVGVSPDHQGKGLGSAVVLPGVEAAERAGVPAFLETSAPRNLPFYERLGFTVTADVEVPEGPRTWCMTRKPGA

Test system: Nalm6 cells
Test: JNG assay, co-culture with Nalm6 cells
Format: cell-based
Conditions: co-culture with Nalm6
Experimental: Cellular supernatant is collected and assayed for the induction of cytokines (e.g., IL2).
JNG (Jurkat cells expressing EGFP under an NFAT promoter) were infected with lentiviral vectors encoding different single chain and multi-chain SARs by spinfection in the presence of 8 µg/ml of Polybrene® (Sigma, Catalog no. H9268). The Jurkat-NFAT-GFP cells are engineered in such a way that the IL-2 promoter, which carries NFAT binding sites, is cloned upstream of the GFP gene. These cells have been used to study signaling via TCR and CAR. The different SARs were stably expressed in Jurkat NFAT-GFP cells by lentiviral mediated gene transfer, followed by selection with puromycin or blasticidin. No drug selection was used in case the construct lacked an antibiotic resistance gene. The SAR-expressing Jurkat-NFAT-GFP cells were cocultured with the target cells at E:T ratio of approximately 1:2 for approximately 4 hours to 18 hours. When the interaction between SIRs and their target antigen results in activation of the NFAT pathway, GFP expression is induced. […] GFP expression was monitored by FACS analysis. The Jurkat-NFAT-GFP (parental) cells were used as control. The structure of different constructs can be determined based on their names. For example, the construct CD8SP-CD19-hu-mROO5-1-vL-[hTCRa-C SDVP]-F-F2A-Spe-IgHSP-Apa-CD20-vHH-2HCD25-G4S-CDl9-hu-mROO5-1-vH-Mlu-[hTCRb-KACIAH]-F-P2A-PAC has the following modules from 5′ to 3′ direction: a CD8 signal peptide (CD8SP), the CD19 targeting hu-mROO5-1 vL fragment (CD19-hu-mROO5-1), Xho1 cloning site, human TCRa constant chain containing CSDVP mutations (hTCRa-CSDVP), Furine cleavage site (F), F2A ribosomal skip sequence (F2A), SpeI site, human IgH signal peptide (IgHSP), Apa I restriction enzyme site, camelid CD20-2HCD25-VHH module targeting CD20, BamHI restriction enzyme site, Glycinex4-serine linker (G4S), BstI restriction enzyme site, CD19-hu-mROO5-1-vH fragment targeting CD19, Mlu I restriction enzyme site, human TCRb constant chain containing KACIAH mutations ([hTCRb-KACIAH]), Furine cleavage site (F), P2A ribosomal skip sequence and Puromycin resistance gene (PAC). The sequence of the other constructs in the table can be similarly determined from their names and by referring to the different Tables of this disclosure that provide the names and SEQ ID NO of the different modules. Alternatively, the composition and modular architecture of the different SAR constructs can be determined from their sequences by bioinformatics tools, including using nucleic acid and amino acids homology searches. A SAR is considered positive in the assay in case the SAR expressing Jurkat-NFAT-GFP cells show greater % GFP positive cells when cultured with the target cell line as compared to parental Jurkat-NFAT-GFP cells. The signs +/-, +, 2+ etc. after the name of the cell lines indicate the relative degree of positivity on the Jurkat-NFAT-GFP assay as measured by the % GFP positive cells after culture of the SAR expressing Jurkat-NFAT-GFP cells with that cell line above the % GFP cells observed in parental Jurkat NFAT-GFP cells serving as controls. In general, the number +/-, +, 2+, 3+, 4+, 5+ refer to approximately 5%, 10%, 20%, 30%, 40% and 50% GFP positive cells. The % of GFP induction in the above assay is dependent not only the relative strength of the SAR but also, among other factors, on the relative level of expression of the SAR in the JNG cells and the relative level of expression of the target antigen in the target cell line. To control for the difference in gene transduction efficiency of the different SAR constructs, the experiment was conducted with JNG cells transduced with SAR constructs co-expressing a drug resistance gene (e.g., puromycin or PAC) followed by drug selection to generate a stable population of SAR-expressing cells. […]

Molecule	NFAT-GFP ASSAY: Nalm6
B1	+/- (refer to approximately 5%, 10%, 20%, 30%, 40% and 50% GFP positive cells)
B2	+/- (refer to approximately 5%, 10%, 20%, 30%, 40% and 50% GFP positive cells)
B3	+/- (refer to approximately 5%, 10%, 20%, 30%, 40% and 50% GFP positive cells)
B4	+/- (refer to approximately 5%, 10%, 20%, 30%, 40% and 50% GFP positive cells)

Test system: RAJI cells
Test: JNG assay, co-culture with RAJI cells
Format: cell-based
Conditions: JNG cells expressing construct, co-culture with Raji
Summary of the method: (§1)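 Jurkat NFAT-GFP (JNG) cells stably transduced with SARs by lentivirus, with drug selection where the construct carried a resistance gene, then co-cultured with target cells at E:T ~1:2 for ~4–18 h. % GFP-positive cells measured by FACS against parental JNG; +/- to 5+ correspond to ~5–50% GFP-positive.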

Molecule	NFAT-GFP ASSAY: Raji
B2	+ (refer to approximately 5%, 10%, 20%, 30%, 40% and 50% GFP positive cells)

Test system: L363 cells
Test: JNG assay, co-culture with L363 cells
Format: cell-based
Conditions: co-culture with L363
Summary of the method: as §1

Molecule	NFAT-GFP ASSAY: L363
B1	+ (refer to approximately 5%, 10%, 20%, 30%, 40% and 50% GFP positive cells)
B2	+ (refer to approximately 5%, 10%, 20%, 30%, 40% and 50% GFP positive cells)
B3	+/- (refer to approximately 5%, 10%, 20%, 30%, 40% and 50% GFP positive cells)
B4	+/- (refer to approximately 5%, 10%, 20%, 30%, 40% and 50% GFP positive cells)
